Experiment: soluble on expression in E. coli; label from the status in PepcDB or PDB records

Q: For “GSHMSGKARLHYPVTRQGEQVDHYFGQAVADPYRWLEDDRSPETEAWVKAQNAVTQDYLAQIPYRAAIKEKLAASWNYAKEGAPFREGRYHYFFKNDGLQNQNVLWRQQEGKPAEVFLDPNTLSPDGTTALDQLSFSRDGRILAYSLSLAGSDWREIHLMDVESKQPLETPLKDVKFSGISWLGNEGFFYSSYDKPDGSELSARTDQHKVYFHRLGTAQEDDRLVFGAIPAQHHRYVGATVTEDDRFLLISAANSTSGNRLYVKDLSQENAPLLTVQGDLDADVSLVDNKGSTLYLLTNRDAPNRRLVTVDAANPGPAHWRDLIPERQQVLTVHSGSGYLFAEYMVDATARVEQFDYEGKRVREVALPGLGSVSGFNGKHDDPALYFGFENYAQPPTLYRFEPKSGAISLYRASAAPFKPEDYVSEQRFYQSKDGTRVPLIISYRKGLKLDGSNPTILYGYGGFDVSLTPSFSVSVANWLDLGGVYAVANLRGGGEYGQAWHLAGTQQNKQNVFDDFIAAAEYLKAEGYTRTDRLAIRGGSNGGLLVGAVMTQRPDLMRVALPAVGVLDMLRYHTFTAGTGWAYDYGTSADSEAMFDYLKGYSPLHNVRPGVSYPSTMVTTADHNDRVVPAHSFKFAATLQADNAGPHPQLIRIETNAGHGAGTPVAKLIEQSADIYAFTLYEMGYRELPRQP”, which “soluble on expression in E. coli” value is on record?
A: Its value is “soluble”.

Q: Which “soluble on expression in E. coli” value does the source give for “MKIAVTKFLGTNCDLDVCHAVKLAGGEPELVFFTQENLDSYKGAVIPGGFSYGDYLRAGAISARTPIIKGLKKMVEEGKPVLGICNGAQIGLEAGFSKGTLTNNLNAKFICKWVYIRVENNKTPFTQYYKKGEVLKIPIAHAEGRFYADDETLDYMYKNNMIVFKYCDETGEVTEEANPNGSIDNIAGVCNENQNCVLLMPHPERASEKILGSDDGLKMFKGMIDYAKRI” here?
A: Its value is “soluble”.

Q: With “MPKLGIKPLRRQQLIDATLRSISERGLQNTTIVSISKIAGMSSGIISHYFGGKKELIEETVSYLLDQLQQSLLERITEENPPAHIRLNLIVEANFTEFQRSLLATKTWLSFWAMSMHDPAMARLQSINSNRLHSNLLFSFKELLDPESAANAAKQTAAMIDGFWLRSALSENSEQEFIAAELLCKKFINDVIKQEISNASN” as the sequence, how does the “soluble on expression in E. coli” value read?
A: The value was “not soluble”.

Q: For “MDLTASLEDDQREKLRQYTEFTHQQDYEVAIGTLASLNWNLEQAIEAHLMQEDKNDDEDPEILETIPAAASGRNAGASSSSRFEPEVINIEDDEMPATRGRRRGRAVTPDETTTVDNQVKRLRIDDGSSSSSNGAATHHRGAAIPRQKRGQATEPTPSSSGSSSASFSSRRGTRANPVPPPNQEPAHPESARQNGGILASRHNNHNNQQNNHHHHHQRIPINPRRVDVFNVDSDEDDDSMAIAYEDDDDGVHEVHHSEVCEKDRAISAFLAPKLGNEVVARGSGPPNGRIPMIPDGFSSVSDALRNFVAIFSDRFCSTPQTQAFMPPFYTEPLPAAVKEAFDHPNSEHRRPLLFYINHDRSIAANIFASQVLCSETVSTLIRHQYVLFPWDITSDSNLMLFLEYLQAANMGDVRTIIQRLAMSKIESFPLMAIVVKERNSYRLVDYCRGTDTSDQVMEKLLSGVSEYSDIRMNEQSERREREEREAIRNQQEAEYKASLAADKARMEAKQQEIEEQRLEEERKLREEEEECVRRQTVASTVPEEPPASAPLAEIINVKFRLPEGGQDMRRFRRLESIQTLINYLSSKGYSPDKFKYFNSDFPKKEITRHFDLSHNFADTKWPAREQIFVEEI”, which “soluble on expression in E. coli” value is on record?
A: The value was “not soluble”.

Q: For “KTTTTIYDKNKEYAGKLSGQKGTYVELNAISDHLKNAVIATEDRTFYENNGVNFKRFFLAVATLGKFGGGSTITQQLAKNAYLSQDQTIKRKAREFFLALELTKKYSKAEILTMYLNNSYFGNGVWGVEDASRKYFGTSAANLTVDEAATLAGMLKGPEVY”, which “soluble on expression in E. coli” value is on record?
A: The value was “not soluble”.

Q: With “MLYNMDERFEIKDIVAREVIDSRGNPTVEVEVITKGNGYGSAIVPSGASTGTHEALELRDKEKRFGGKGVLMAVENVNSIIRPEILGYDARMQREIDTIMIELDGTPNKSRLGANAILAVSLAVAKAAAATAKIPLYKYLGGFNSYVMPVPMMNVINGGKHAGNDLDLQEFMIMPVGATSISEAVRMGSEVYHVLKNVILEKYGKNAVNVGDEGGFAPPLKTSREALDLLTESVKKAGYEDEVVFALDAAASEFYKDGYYYVEGKKLTREELLDYYKALVDEYPIVSIEDPFHEEDFEGFAMITKELDIQIVGDDLFVTNVERLRKGIEMKAANALLLKVNQIGTLSEAVDAAQLAFRNGYGVVVSHRSGETEDTTIADLSVALNSGQIKTGAPARGERTAKYNQLIRIEQELGLSKYAGRNFRCPF” as the sequence, how does the “soluble on expression in E. coli” value read?
A: Its value is “soluble”.

Q: For “SLLNVPAGKDLPEDIYVVIEIPANADPIKYEIDKESGALFVDRFMSTAMFYPCNYGYINHTLSLDGDPVDVLVPTPYPLQPGSVTRCRPVGVLKMTDEAGEDAKLVAVPHSKLSKEYDHIKDVNDLPELLKAQIAHFFEHYKDLEKGKWVKVEGWENAEAAKAEIVASFERAKNK”, which “soluble on expression in E. coli” value is on record?
A: The value was “soluble”.

Q: With “SKGRPQIDSSKATDKINPMDFTFVEINEAVKLVEMGVATPQDIDTAIKLGLNRPFGPFELAKQFGAEQIAKRLEELAKQFGKKIFEPAKTLKEGKLEELLKAGKAE” as the sequence, how does the “soluble on expression in E. coli” value read?
A: The value was “soluble”.

Q: With “MNEETHNKKWQITHRKIQEIVFHLLKEHPIKEISVSQVCKKANINRSTFYDHFEDIYELFDVTQLNKRKELFESFIKQSNPRDKFNFYDLQSLTQFLTFIKENGWIYSIVLKSRQDFPITEGFEELYKVLINPLKKKRPELTDNELAYYFIAFQSSFTFILKRWSDNDYQEKEKEIAAILINSMPLILKNK” as the sequence, how does the “soluble on expression in E. coli” value read?
A: Its value is “soluble”.

Q: Which “soluble on expression in E. coli” value does the source give for “MAHHHHHHMYTWFHTSSHVFFVMEYCSNGDLFTYLNEHGPFAEKKVAEMLFEIIWAIRTCHDKRIAHLDLKPENVLVNHEEKCKLADFGLSAHIGSKHKKKGISHYRGTHDYWSPEQCARHQKKKQNFGEFDQKTDIWTLGILAFELKFGRPPFGSTNEERETVIMNRIQDYHWSQLFCEKMKQDLIDKLSPEFKDFLNLCLDKNPKKRPTAETLIQHPFIFLHNKSRPCIKSYATQPRGKQGPKLSHKGFNEQDGSFLTPIWFHNKG” here?
A: Its value is “not soluble”.

Q: With “MSLNLSKTLKHVYQEAKVSDLFPITHLNSPCIFESQSGLVGSVIKVNGAAFEIEEAETLNHQRFLLHQALVSLDSRFIIYVTTHRQKISCPLIGEFKPGFAKDLDERYQQRFKDKNLYKNTLYITVVLKGDDTSKTGSWLKWAKSLSIKGNSELSEHHREQSIQTLNRVVEQLQANLNPFEATILGKQDEVLGFSELLQFLGLVVNAGQTTSFKHPVCSPPIANSIPQTFKQEVKYPEGHLGQYLSSCQLLFGECIQFQGNTQKDCVFGAMLSLKKYPTNTASILLDSMLSLDCEFIATHTFAPIGRDSALDTISKKRSKLLSAEDKALSQTTALSDLEDGIASETLLLGAHHHTVMLLAPNKSLLDAAILEATKRYGSAGIVVVKETLGLEPAFWSQLPCNQHFITRASLITSQNFVDFCPLHNTQTGFSNENFLGGAVTLLETPSKTPVYFNYHARGSKTEGHHHHHH” as the sequence, how does the “soluble on expression in E. coli” value read?
A: Its value is “soluble”.

Q: For “MAYLERAYFGLQCFWGESAWAKLKGVVVTRVGYAGGKQPNPTYKNIKDHTEITEITFDPKVIEYSKLTNFFWKHHNPAERRKKQYQSAILYVNDDQKKVAEETLKVAKDKHGDIETYIEPLDKFYQAEDYHQKYWFRQKKILFDELSLLDTQVAEGELATKLNAYCAGFQDFHDLERLAKEYGLKDSFVNKVKDYALSGGDPRNCHA”, which “soluble on expression in E. coli” value is on record?
A: Its value is “not soluble”.

Q: With “MGSDKIHHHHHHMSKAMISRENYLQQLIQFKDTDFIKVISGVRRSGKSVLLMQYRDYLQQQGIASENILYLNFESFEYQWVKDAQDFQQLIQEKMPSSQEKIYFLIDEIQFVEGWQKIVNALRVSFNTDIVITGSNANLLSGELATLLSGRYVEIKIYPLSFKEFLHAKNVDSQSRLVDKLYSEYEKYGGFPSVVMADEPLKETILSGIFDSIVLNDIAHRAGVKDTHILKSVILFLADNVGQLVNPSKISNTLTSERVPTSNHTISKYLDLLENAFLFYKAKQYDIRGKGYLKTNAKYFIVDNGLRRHAIGKKGANYANRLENIVFIELLRRGYSVDVGKLDSKEIDFIARKADEILYVQVAFEIPENTHETDNLLHIKDNYKKILITGKYYEQTEIDGIEVIYVVDWLLQ” as the sequence, how does the “soluble on expression in E. coli” value read?
A: The value was “not soluble”.

Q: Which “soluble on expression in E. coli” value does the source give for “MKTNTIITIGRQFGSAGREIGYQIADYFGIKLYDKEMLSRAAKESGICEEIFETHDEKPTNSFLYSLVMDTYSMGYSGGSYSDMPINHKVFLAQFDAIKKIADEGPCILVGRCADYALESYDNVVNVFIHADLDARIRRIARIYNLTDAKAKDMIIKTDKKRASYYNYYTNKKWSDSESYELCLSSSELGIEGTAKAIEQYVMLKEQIQRDDKIL” here?
A: Its value is “not soluble”.

Q: For “MGSDKIHHHHHHMSYSEKMLAALSNGQIDTAKKHFAWALRKDDDQTLYSLAEELYGLGFLKQAERTYKKLLAKYPDEDDLRTSLADIAIDEDDTDLALDYLQQVKPDSPAYVQALLVEADLYQTQELFEVSEQKLKEAYQLAPDEPVVEFALAEFYFLIRNYGQATRFYLDLIKQGQLEISKVNLVERLGVAYAESGRFEQAVGYLEQIKPAKLTPDSQFELGFTYLQLNEPQKAVDIFDKLREQDNQYASLYPYLAQAQEQLHQLDKALLTLQEGLAVDQYNEQLYLQTARLALKLDDQELAEKYLREGLSIDPDNLTTVLELSNLLVQRERYQDNIDLLDQYLQSNEFDPQFYWNLAISNDRLDHFQAAKDNYEAAYPFFEHNKDFLKPAIYFFREAGMADSAVAALRNYLTIEPDDGEMVAMLEDYEDQGY”, which “soluble on expression in E. coli” value is on record?
A: Its value is “not soluble”.

Q: With “MTKSLFRQSFLFDSLDLDHPMVAQTVRTEQGVTLKLHQRGVLEVIPAQTDAATKNMVISCGIHGDETAPMELLDKWIDDIVSGFQPVAERCLFIMAHPQATVRHVRFIEQNLNRLFDDKPHTPSTELAIADNLKVLLRQFFANTDEHSRWHLDLHCAIRGSKHYSFAVSPKARHPVRSRSLMQFIEQAHIEAVMLSNAPSSTFSWYSAEHYAAQALTLELGQVARLGENLLDRLLAFDLAMRDLISRHKPEHLPRKSVMYRVSRTIVRLHDDFDFRFSDDVENFTAFMHGEVFGHDGDKPLMAKNEGEAIVFPNRKVAIGQRAALMVCKVNTRYEDDQLVYDLEHHHHHH” as the sequence, how does the “soluble on expression in E. coli” value read?
A: Its value is “soluble”.

Q: Which “soluble on expression in E. coli” value does the source give for “QSSAQRHADLNTLIGHTEPVANIAQDLYSSLSLADTEASASFVRGTNDNYVEYIQKAALLVTQTDGDIANIATQLPVYTGLVETARANNRQGHPVGVAYMSEASTLMQESILPAASQLYLNAAEQVSTAQRNLARPQ” here?
A: Its value is “not soluble”.

Q: Which “soluble on expression in E. coli” value does the source give for “MKIDISDILKHSGASLRLDFSESIKINDFIAEDFDFAKPVTFKGTLVNAGGIIKLDGELWADYRAKCSRCLKDIESKMHIDVKENFVEEGSNKTDEEYYTYHGKFLELEKVMIDNIILNLPAKQVCDEACKGYCPKCGADLNNDECKCVNEDIDPRLEVFKNFFTDN” here?
A: Its value is “soluble”.

Q: Which “soluble on expression in E. coli” value does the source give for “MSRGYYRTEEEIVQDKVLHRDPGIIEENYASKPPSRRSSSNTNPDSLVNQKHAQPLPSPLHSPVKSVTGSSKNQSPKMAPVRSNSRGSSASSEEDIGTRSFSISVLKDSGTKVEIMLKAHGLRKKKGFINSLVTVFKKPSQPSRLLSNGKFTEFVLTEHALRFLLEVKTDKKKKKGNGNRLDTFLCEVKRFPSDVNPDSAEFEVLEPASGEAFILLTLIKTGNLSTNWKEFLDTHGTLDVSTI” here?
A: Its value is “soluble”.

Q: With “MTAPTAHDYDVVIIGGGPAGLTAAIYTGRAQLSTLILEKGMPGGQIAWSEEVENFPGFPEPIAGMELAQRMHQQAEKFGAKVEMDEVQGVQHDATSHPYPFTVRGYNGEYRAKAVILATGADPRKLGIPGEDNFWGKGVSTCATCDGFFYKGKKVVVIGGGDAAVEEGMFLTKFADEVTVIHRRDTLRANKVAQARAFANPKMKFIWDTAVEEIQGADSVSGVKLRNLKTGEVSELATDGVFIFIGHVPNTAFVKDTVSLRDDGYVDVRDEIYTNIPMLFAAGDVSDYIYRQLATSVGAGTRAAMMTERQLAALEVEGEEVTAAD” as the sequence, how does the “soluble on expression in E. coli” value read?
A: Its value is “soluble”.

Source: the DeepSol protein solubility set
